Here are results for two molecules from publication PMC6154639 (Molecules : A Journal of Synthetic Chemistry and Natural …, 2017).

The target of data set [1] is T1, PaF4′OMT (Plagiochasma appendiculatum, UniProt A0A1X9Y2Y6).
T1 construct: pET32a fusion with N-terminal His6 tag kept (about 60 kDa on SDS-PAGE); E. coli BL21(DE3)
Briefly: HPLC product quantification, Michaelis-Menten fit. The class given is biochemical. Conditions: substrate inhibition by luteolin; SAM as methyl donor; pH 7.5, 37 °C. From the text:
HPLC product quantification, Michaelis-Menten fit on PaF4′OMT

Substrate in data set [2]: O=c1cc(-c2ccc(O)cc2)oc2cc(O)cc(O)c12
The data set can be described thus: purified protein. To be noted: SAM as methyl donor, no Mg2+ needed, pH 7.5, 37 °C.

Substrate in data set [3]: O=c1cc(-c2ccc(O)c(O)c2)oc2cc(O)cc(O)c12
The data set can be described thus: HPLC product quantification, Michaelis-Menten fit. Format: biochemical, Plagiochasma appendiculatum. To be noted: SAM as methyl donor, no Mg2+ needed, pH 7.5, 37 °C.

As for `O=c1cc(-c2ccc(O)c(O)c2)oc2cc(O)cc(O)c12` [luteolin], the “Ki” value in data set [1] turned out to be 292.8 ± 69.03 µM.

B1: PaF4′OMT (Plagiochasma appendiculatum) (protein)
chain: MAVSTNGKTSEGVSDVSRTKNITNGNGMDMSVSANVASIGSVSATPLSPEDKRDHVVAINFLLGWVQTWALKAVVTMRIPDIISKAPMDALTAREIISQIQCKNPSNAVPLLERLMRFMVCKGFFSESVNGENEIAYELNGVSKMYVTDHEMSVVEWVNVAFHRSGIPALTRMHEAITEDVCPWDQAHGMPIYAHNPKFPELGDFFHKAMIVHSNFLTKILAEEYEGFKDFKVLVDVGGSLGNNLALILRFHPHLRGINFDMPSVIAGAPSFPGVEHVGGNFYESVPSGDAIMLMAILHNNSDENCVKILRSVHAALPEDGKLIVAEYIMTNEADHNGERIRLLDMLMLVQFRGGEERTFEHHKTLYEAAGFRHYKLIKTSGPMDIIEVRK
notes: pET32a fusion with N-terminal His6 tag kept (about 60 kDa on SDS-PAGE); E. coli BL21(DE3)
Take B1: in data set [2], the Km worked out at 31.0 ± 5.90 µM, the maximal velocity (Vmax) was found to be 0.163 µmol/min/mg and the kcat amounted to 0.117 s⁻¹. In addition, in data set [3], the Km was 52.1 ± 10.54 µM, the Vmax stood at 0.111 µmol/min/mg and the kcat came out at 0.08 ± 0.009 s⁻¹.
